Measurements from the supplement of paper PMC9170038.

Legend:
[1] = tested on: MS2 coat protein; test: apparent KD of MS2 coat protein, switch OFF state (with FMN for OFF switches, without FMN for ON switches); designed switch direction (-1 OFF switch, 1 ON switch): -1; higher = weaker reporter binding; conditions: FMN input: 0 or 200 uM; Eterna round: R93 (includes R88 designs)
Outline: (§1)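 Designed RNA switches were made by on-chip transcription from Illumina sequencing clusters and then titrated with SNAP-549-labelled MS2 coat protein. Twofold steps ran from 0.7 or 1.5 nM to 3 µM, each lasting 0.8–1.5 h early and 10–20 min late, in 100 mM Tris-HCl pH 7.5, 80 mM KCl, 4 mM MgCl2, without or with constant ligand. Apparent KD is the per-design median of normalised cluster binding-curve fits.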

[2] = tested on: MS2 coat protein; test: apparent KD of MS2 coat protein, switch ON state; designed switch direction (-1 OFF switch, 1 ON switch): -1; higher = weaker reporter binding; conditions: FMN input: 0 or 200 uM; Eterna round: R93 (includes R88 designs)
Outline: as §1

Row | Sequence | apparent KD of MS2 coat protein [1] | apparent KD of MS2 coat protein [2]
1 | AACUAGCUAGGAUAUACAUGAGGAUCACCCAUGUAAAAAAAAAAAAAAAGAUAUAUAUGUAGAAGGAGCUAGUA [Mod of Brourd] | 41.3 nM | 30.5 nM
2 | AACUAGCUAGGAUAUACAUGAGGAUCACCCAUGUAAAAAAAAAAAAAAAGAUCAAAAUGUAGAAGGAGCUAGUA [Design 2 - Brourd - Exclusion 3] | 58.5 nM | 59.6 nM
3 | AACUAGUCAGGAUAUACGAACAUGUCAAAAAACAUAAAGGGACAUGAGGAUCACCCAUGUAGAAGGGACUAACA [74%, Web mod - With 5 less G's] | 500 nM | 299 nM
4 | AACUAGUCAGGAUAUACGAACAUGUCAAAAGACGUGAAGGGACAUGAGGAUCACCCAUGUAGAAGGGACUAGCA [74%, Web mod - With 1 less G's] | 147 nM | 47.1 nM
5 | AACUGACAUGAGGAUCACCCAUGUCAGGAUAUGACUUGACGAAAAAAAACAUGUCAUGUCAGAAGGGACAUGGA [Design 89: Sub-opt Z] | 27.6 nM | 26.4 nM
6 | AACUGACAUGAGGAUCACCCAUGUCAGGAUAUGAUAUGUAAAAAAAAAAAAAUACUUAUCAGAAGGGACAUGAA [Design 44: Sub-opt CB] | 14.1 nM | 15.1 nM
7 | AACUGACAUGAGGAUCACCCAUGUCAGGAUAUGCUUCAUAAAAAAAAAAAAAAAUGAUGCAGAAGGGACAUGGA [Design 29 :P Sub-opt 5] | 24.5 nM | 20 nM
8 | AACUGACAUGAGGAUCACCCAUGUCAGGAUAUGCUUCAUAAAAAGAAACAAAAAUGAUGCAGAAGGGAUAUGGA [Design 35 :P Sub-opt 11] | 13.9 nM | 13 nM
9 | AACUGACAUGAGGAUCACCCAUGUCAGGAUAUGCUUCAUAAAACAAAAACAAAAUGAUGCAGAAGGGACAUGAA [Design 26 :P Sub-opt 2] | 14.6 nM | 16.3 nM
10 | AACUGUACAGGAUAUACAUGAGGAUCACCCAUGUGAGAAUUAAGUGGGAAACCACAAAGUAGAAGGGUACAGGA [Mat - Exclusion 3 - JL mod - D19] | 162 nM | 29.1 nM
11 | AAGAAACAUGAGGAUCACCCAUGUCAGGAUAUACAAAAGAAAAGAAAAGAAAGAAGAAGUAGAAGGGACAAAGG [Neitiqerty Siptah] | 69.3 nM | 38.3 nM
12 | AAGAAACAUGAGGAUCACCCAUGUCAGGAUAUCAAAAAGAAAAGAAAAGAAAGAAGAAUGAGAAGGGACAAAGG [Meryibre Khety I] | 61.7 nM | 50.7 nM
13 | AAGAAACAUGAGGAUCACCCAUGUCAGGAUAUGCAAAACUGACGAAAGUCAGAAGAAAGCAGAAGGGACUAGAA [5-pair stack] | 52 nM | 29.1 nM
14 | AAGAAACAUGAGGAUCACCCAUGUCAGGAUAUUCAAAAGAAAAGAAAAGAAAGAAGAAGAAGAAGGGACAAAGG [Neferkare II] | 66.1 nM | 57.6 nM
15 | AAGAAACAUGAGGAUCACCCAUGUGAGGAUAUACAAAAGAAAAGAAAAGAAAGAAGAAGUAGAAGGUACAAAGG [Merenre Nemtyemsaf II] | 26.6 nM | 23.7 nM
16 | AAGAAACAUGAGGAUCACCCAUGUGAGGAUAUGGAAAAGAAAAGAAAAGAAAGAAGAACCAGAAGGCACAAAGG [Neferkare (VI) Pepiseneb] | 50.8 nM | 71.8 nM
17 | AAGAAAGGAGGAUAUACAUGAGGAUCACCCAUGUAAAAGAAAGAAAAGGGAAAGAAAAGUAGAAGGCCUAAGAA [Usermaatre-meryamun Ramesses III] | 28.7 nM | 39.2 nM

Row | Sequence | apparent KD of MS2 coat protein [1] | apparent KD of MS2 coat protein [2]
18 | AAGAAAGGAGGAUAUACAUGAGGAUCACCCAUGUAAAAGAAAGAAAGGGAAAAGAAAAGUAGAAGGCCUAAGAA [Shoshenq IV] | 41.2 nM | 35.3 nM
19 | AAGAACACAGGAUAUACAUGAGGAUCACCCAUGUAAAAGAAAGAAAAGGGAAAGAAAAGUAGAAGGGUGAAGAA [Nebkheperure Tutankhaten] | 51.3 nM | 44.7 nM
20 | AAGAACCAAGGAUAUACAUGAGGAUCACCCAUGUAAAAGAAAGAAAAGGGAAAGAAAAGUAGAAGGUGGAAGAA [Userkheperure Seti II] | 27.3 nM | 25.7 nM
21 | AAGAACCGAGGAUAUACAUGAGGAUCACCCAUGUAAAAGAAAGAAGGGAAAGAGAAAAGUAGAAGGCGGAAGAA [Usermaatre Shoshenq VI] | 34.3 nM | 36.1 nM
22 | AAGAACCGAGGAUAUACUAAAGAAAUGAAAAGAAAUAAAGAACAUGAGGAUCACCCAUGUAGAAGGCGGAAGAA [Nebefawre] | 23.4 nM | 27.4 nM
23 | AAGAACCUAGGAUAUACUAAAGAAAUGAAAAGAAAUAAAGAACAUGAGGAUCACCCAUGUAGAAGGAGGAAGAA [Sewadjkare III] | 26.1 nM | 43.4 nM
24 | AAGAACGAAGGAUAUACAUGAGGAUCACCCAUGUAAAAGAAAGAAGGGAAAGAGAAAAGUAGAAGGUCGAAGAA [Usermaatre Piye] | 24.4 nM | 22.2 nM
25 | AAGAACGCAGGAUAUACAUGAGGAUCACCCAUGUAAAAGAAAGAGGGAAAAGAGAAAAGUAGAAGGGCGAAGAA [Setepenre-meryamun Ptolemy I Soter] | 57.8 nM | 37 nM
26 | AAGAACGGAGGAUAUACUAAAGAAAUGAAAAGAAAUAAAGAACAUGAGGAUCACCCAUGUAGAAGGCCGAAGAA [Sehebre] | 23.7 nM | 17 nM
27 | AAGAACGUAGGAUAUACAAAAUAAAAGAAAAGAAAGAAAGAACAUGAGGAUCACCCAUGUAGAAGGACGAAGAA [Sekhemrekhutawy Khabaw] | 21.8 nM | 21.6 nM
28 | AAGAACUGAGGAUAUACAAAAUAAAAGAAAAGAAAGAAAGAACAUGAGGAUCACCCAUGUAGAAGGUAGAAGAA [Maakherure Amenemhat IV] | 33.4 nM | 31.3 nM
29 | AAGAACUGAGGAUAUACAUGAGGAUCACCCAUGUAAAAGAAAGAAGGGAAAGAGAAAAGUAGAAGGCAGAAGAA [Inamunnifnebu] | 27.8 nM | 20.6 nM
30 | AAGAAGCGAGGAUAUACAAAAUAAAAGAAAAGAAAGAAAGAACAUGAGGAUCACCCAUGUAGAAGGCGCAAGAA [Semenkare Nebnuni] | 28.5 nM | 34.9 nM
31 | AAGAAGCUAGGAUAUACAUGAAAGAAAGAAAAGAAAAGAAAACAUGAGGAUCACCCAUGUAGAAGGAGCUAGAA [EteRNA is fun!] | 32.5 nM | 33.1 nM
32 | AAGAAGCUAGGAUAUACAUGAGGAUCACCCAUGUAAAAGAAAGAAAGGGAAAAGAAAAGUAGAAGGAGCAAGAA [Netjerikheperre-setpenamun Siamun-meryamun] | 18.1 nM | 12.2 nM
33 | AAGAAGCUAGGAUAUACUAACGAAACUAAUGCAUAGAUAAAACAUGAGGAUCACCCAUGUAGAAGGAGCAGAAU [JR_Exc002_Sub014] | 20.6 nM | 21.6 nM
34 | AAGAAGCUAGGAUAUACUUGGGCAACAAAUAAACUAAUAUAACAUGAGGAUCACCCAUGUAGAAGGAGCAGAAA [JR_Exc002_Sub205] | 39.8 nM | 39.7 nM
